The text below walks through data of publication PMC8294582.

Sequences and labels used below:
B1: truncated form of human WT SETD2, FLAG-tagged (tSETD2-FLAG, aa1418–2564), Q9BYW2 H2514A (protein)
chain: DGELQDRKKVRVEVEQGETSVPPGSALVGPSCVMDDFRDPQRWKECAKQGKMPCYFDLIEENVYLTERKKNKSHRDIKRMQCECTPLSKDERAQGEIACGEDCLNRLLMIECSSRCPNGDYCSNRRFQRKQHADVEVILTEKKGWGLRAAKDLPSNTFVLEYCGEVLDHKEFKARVKEYARNKNIHYYFMALKNDEIIDATQKGNCSRFMNHSCEPNCETQKWTVNGQLRVGFFTTKLVPSGSELTFDYQFQRYGKEAQKCFCGSANCRGYLGGENRVSIRAAGGKMKKERSRKKDSVDGELEALMENGEGLSDKNQVLSLSRLMVRIETLEQKLTCLELIQNTHSQSCLKSFLERHGLSLLWIWMAELGDGRESNQKLQEEIIKTLEHLPIPTKNMLEESKVLPIIQRWSQTKTAVPPLSEGDGYSSENTSRAHTPLNTPDPSTKLSTEADTDTPKKLMFRRLKIISENSMDSAISDATSELEGKDGKEDLDQLENVPVEEEEELQSQQLLPQQLPECKVDSETNIEASKLPTSEPEADAEIEPKESNGTKLEEPINEETPSQDEEEGVSDVESERSQEQPDKTVDISDLATKLLDSWKDLKEVYRIPKKSQTEKENTTTERGRDAVGFRDQTPAPKTPNRSRERDPDKQTQNKEKRKRRSSLSPPSSAYERGTKRPDDRYDTPTSKKKVRIKDRNKLSTEERRKLFEQEVAQREAQKQQQQMQNLGMTSPLPYDSLGYNAPHHPFAGYPPGYPMQAYVDPSNPNAGKVLLPTPSMDPVCSPAPYDHAQPLVGHSTEPLSAPPPVPVVPHVAAPVEVSSSQYVAQSDGVVHQDSSVAVLPVPAPGPVQGQNYSVWDSNQQSVSVQQQYSPAQSQATIYYQGQTCPTVYGVTSPYSQTTPPIVQSYAQPSLQYIQGQQIFTAHPQGVVVQPAAAVTTIVAPGQPQPLQPSEMVVTNNLLDLPPPSPPKPKTIVLPPNWKTARDPEGKIYYYHVITRQTQWDPPTWESPGDDASLEHEAEMDLGTPTYDENPMKASKKPKTAEADTSSELAKKSKEVFRKEMSQFIVQCLNPYRKPDCKVGRITTTEDFKHLARKLTAGVMNKELKYCKNPEDLECNENVKHKTKEYIKKYMQKFGAVYKPKEDTELE
B2: truncated form of human WT SETD2, FLAG-tagged (tSETD2-FLAG, aa1418–2564), Q9BYW2 R2510H (protein)
chain: B1 chain with R1093H, A1097H
B3: truncated form of human WT SETD2, FLAG-tagged (tSETD2-FLAG, aa1418–2564), Q9BYW2 V2483A (protein)
chain: B1 chain with V1066A, A1097H
B4: truncated form of human WT SETD2, FLAG-tagged (tSETD2-FLAG, aa1418–2564), Q9BYW2 F2505A (protein)
chain: B1 chain with F1088A, A1097H

Numbering of substitutions follows the chain as printed. Names may count otherwise.

In this assay the target is RNA polymerase II, P24928. Put plainly: coimmunoprecipitation (anti-FLAG beads, Western blot quantification). Conditions: chain shown with the change; tSETD2-FLAG on anti-Flag beads incubated with HEK293 cell lysate; parent: est. 82; read off a plot. Background: Immunoblotting shows a protein as a band on a membrane.
As for B1, the response (% of input bound) was 17.

Turning to B2, the response (% of input bound) is 84.

For the molecule B3, the response (% of input bound) amounted to 76.

As to B4, the response (% of input bound) turned out to be 12.
